Test [1] concerns the target Drosophila melanogaster KCC variant B (Drosophila melanogaster). Briefly: SEC.
In test [2] the target is Hydra vulgaris KCC (Hydra vulgaris). Briefly: SEC.
Test [3] has the same target. The experiment in a line: SEC-MALLS.

This passage reports stoichiometry N results from paper doi:10.1101/2022.05.12.491617.

Usually stoichiometry N stands for the number of molecules, sites or subunits per partner or assembly.

In turn, “Drosophila melanogaster KCC variant B (natural protein)” returned a stoichiometry N in test [1] of 2.

As for Hydra vulgaris KCC (natural protein), the stoichiometry N in test [2] and in test [3] was 2 each time.
